# B1: Phosphocarrier protein HPr wild type, Q8ENY1 (protein)
# chain: MKSQTFTITAETGVHARPATLLVNKAGQFDSEIEVSYKGKQVNLKSIMGVMSLGIPKGAEIEVSADGKDEEDALNGVAEVIKEHLGE
# B2: Phosphocarrier protein HPr wild type, P42013 (protein)
# chain: MAEKTFKVVSDSGIHARPATILVQTASKFNSEIQLEYNGKTVNLKSIMGVMSLGIPKGATIKITAEGADAAEAMAALTDTLAKEGLAE
# B3: Phosphocarrier protein HPr wild type, Q9K8D2 (protein)
# chain: MAEKTFTITAETGIHARPATQLVNKAGQYSSEITLEYKGKAVNLKSIMGVMSLGVGKGAQVTIKAEGSDEAEALKGIEEVIKEGLGE
# B4: Phosphocarrier protein HPr wild type, Q8VP89 (protein)
# chain: MASKDFHIVAETGIHARPATLLVQTASKFASDITLEYKGKAVNLKSIMGVMSLGVGQGADVTISAEGPDADDAIAAIAETMTKEGLA
# B5: Phosphocarrier protein HPr wild type, P08877 (protein)
# chain: MAQKTFKVTADSGIHARPATVLVQTASKYDADVNLEYNGKTVNLKSIMGVMSLGIAKGAEITISASGADENDALNALEETMKSEGLGE
# Conditions: Oceanobacillus iheyensis (strain DSM 14371 / CIP 107618 / JCM 11309 / KCTC 3954 / HTE831); pH 7; 25 °C; GdnHCl; CD; sodium phosphate 10 mM; reversible: Yes; whole UniProt chain shown
Protein,denaturant m value [kcal/mol/M],unfolding free energy [kcal/mol]
B1,2.56,1.4

# Same assay, conditions: Oceanobacillus iheyensis (strain DSM 14371 / CIP 107618 / JCM 11309 / KCTC 3954 / HTE831); pH 7; 25 °C; Urea; CD; sodium phosphate 10 mM; reversible: Yes; whole UniProt chain shown
Protein,denaturant m value [kcal/mol/M],unfolding free energy [kcal/mol]
B1,1.27,3.4

# Same assay, conditions: Oceanobacillus iheyensis (strain DSM 14371 / CIP 107618 / JCM 11309 / KCTC 3954 / HTE831); pH 7; Thermal; CD; sodium phosphate 10 mM; reversible: Yes; whole UniProt chain shown
Protein,Tm [°C],unfolding enthalpy (van 't Hoff) [kcal/mol]
B1,58,59

# Same assay, conditions: Geobacillus stearothermophilus; pH 7; 25 °C; GdnHCl; CD; sodium phosphate 10 mM; reversible: Yes; whole UniProt chain shown
Protein,denaturant m value [kcal/mol/M],unfolding free energy [kcal/mol]
B2,2.43,6.7

# Same assay, conditions: Geobacillus stearothermophilus; pH 7; 25 °C; Urea; CD; sodium phosphate 10 mM; reversible: Yes; whole UniProt chain shown
Protein,denaturant m value [kcal/mol/M],unfolding free energy [kcal/mol]
B2,0.98,8.2

# Same assay, conditions: Geobacillus stearothermophilus; pH 7; Thermal; CD; sodium phosphate 10 mM; reversible: Yes; whole UniProt chain shown
Protein,Tm [°C],unfolding enthalpy (van 't Hoff) [kcal/mol]
B2,88.3,99

# Same assay, conditions: Halalkalibacterium halodurans (strain ATCC BAA-125 / DSM 18197 / FERM 7344 / JCM 9153 / C-125); pH 7; 25 °C; GdnHCl; CD; sodium phosphate 10 mM; reversible: Yes; whole UniProt chain shown
Protein,denaturant m value [kcal/mol/M],unfolding free energy [kcal/mol]
B3,2.36,5.3

# Same assay, conditions: Halalkalibacterium halodurans (strain ATCC BAA-125 / DSM 18197 / FERM 7344 / JCM 9153 / C-125); pH 7; 25 °C; Urea; CD; sodium phosphate 10 mM; reversible: Yes; whole UniProt chain shown
Protein,denaturant m value [kcal/mol/M],unfolding free energy [kcal/mol]
B3,0.9,6.8

# Same assay, conditions: Halalkalibacterium halodurans (strain ATCC BAA-125 / DSM 18197 / FERM 7344 / JCM 9153 / C-125); pH 7; Thermal; CD; sodium phosphate 10 mM; reversible: Yes; whole UniProt chain shown
Protein,Tm [°C],unfolding enthalpy (van 't Hoff) [kcal/mol]
B3,82.3,87

# Same assay, conditions: Streptococcus thermophilus; pH 7; 25 °C; GdnHCl; CD; sodium phosphate 10 mM; reversible: Yes; whole UniProt chain shown
Protein,denaturant m value [kcal/mol/M],unfolding free energy [kcal/mol]
B4,2.75,5.4

# Same assay, conditions: Streptococcus thermophilus; pH 7; 25 °C; Urea; CD; sodium phosphate 10 mM; reversible: Yes; whole UniProt chain shown
Protein,denaturant m value [kcal/mol/M],unfolding free energy [kcal/mol]
B4,0.86,6.3

# Same assay, conditions: Bacillus subtilis (strain 168); pH 7; 25 °C; GdnHCl; CD; sodium phosphate 10 mM; reversible: Yes; whole UniProt chain shown
Protein,denaturant m value [kcal/mol/M],unfolding free energy [kcal/mol]
B5,3.28,3.4

# Same assay, conditions: Bacillus subtilis (strain 168); pH 7; 25 °C; Urea; CD; sodium phosphate 10 mM; reversible: Yes; whole UniProt chain shown
Protein,denaturant m value [kcal/mol/M],unfolding free energy [kcal/mol]
B5,1.08,5

# Same assay, conditions: Bacillus subtilis (strain 168); pH 7; Thermal; CD; sodium phosphate 10 mM; reversible: Yes; whole UniProt chain shown
Protein,Tm [°C],unfolding enthalpy (van 't Hoff) [kcal/mol]
B5,73,77
